Test results from the DeepSol protein solubility set.

assay: soluble on expression in E. coli; label from the status in PepcDB or PDB records

Row | Sequence | soluble on expression in E. coli
1 | MTTVSKPDESSFDVRTLSMKTCGSRLCVGFCYCSGVVKFRKSESVGTVDIPFPSLGACPSLTLSMSPNMNFSSRMALAPTSPMKRSKSVPNILSGEYPNSVCVVANSIDENGDAGVDVTDCASTKPLVLGKDNYQDNYWDSQETNHRNADMKTPKKKVGKISKFVNICVSELKKFKNPNSGVTSIDGVERLKKEIAPLPSSPLKLTSTSTIEFQSTVTSSSPIMRSRETTSTIQRSKIISSTTKVMSDMLMDKEGKDSEISENSINCSTNLAVNKMGDVPSLSQFEDADGLQKKLTEPVELPAKSQEVYQYDVSASPAKEDLKWSTLKKIDLIVPSFRSKKRGLVAHLKSSPISKISYDGSPSKQVGVLDGEITDDGRIDSGPAKAIIPTSTENIIMPKELNISDIGEKAEVSRGLRKRHLEDSSTPSSRGPSTPAKLITDEDATNKKKRVLGKNMVDNKASSPNKEHILPIDQLNNSSAMGISSENTAPMELKATGNDPVSDGGGYKFLVTAETGRKFDEFRAKRQRLRESWMENKSPTSNKNVQTTAVTSGFQSNEQAPENLPATMECLNKEAATTPMNDNRALLTEVGPEAALAEPKLGKPLLPVENVLQYSKSPSKTAVTNKPTKTVLKANFNAPIGKINSDISFFTPKKVFGKSEYQYGPSMGKLIQMMGTGTPKKVLPEFGSSSKTALFSPRKEEHCAGAPRGSWKIAKMRVRTKLSNFYPSSRSKNSQQIRGKWLGQNIVQFSGHHSMIAQSANDKHGANLMEISAQPSTSTTAQNI | not soluble
2 | MTTYLIIGANRVGQLVARQLATESATVRLLHDGKETLPSDLATQVTELTGDLTQEATYTAALQDQPIIFSALTGMDVDLAFEALFDAQYHQRLTFQRFVMLSTAGVDQEVTGDLAYPGITDVAEYLKQQRYAAKLVDEAEFPYTILRPVTLADSPRRDPQIIKEGAAVPAGTVSRETVAQVAVSLLQAGGADYQSLAICLEHHHHHH | not soluble
3 | MTVDSPILTDTLVVGGGQAGIAMSEHLTGQGVPHIVLERDRIAQRWRTGRWDSLVANGPAWHDRFPGLEFEGLDPDGFASKDAVADYLEAYARKFNAPIRTGVEVVRAERNGGRYGFTVETSAGTYEAQRIVVATGPFQRPVIPAIAPRDPALTQIHSADYRNPGQLPEGAVLVIGAGSSGVQIADELQRAGREVYLSVGPHDRPPRRYRGRDFCWWLGVLGLWDQETVQPGREHVTIAVSGTDGGRTIEFRALAHQGITLVGVTKSFRDGVVAFENDLAENVARGDANHFALLDAADAYIARNGLSLPDEPQARRVPPDPACMTEPILQLDLAAANVTSIIWATGYAAEYGWLNVDAFDANGKPRHQRGVSSEPGVYFLGLPWLSRRGSAFLWGVWHDAKHIAGHIAMQRNYLSYPDFGQSQQLEHHHHHH | soluble
4 | MTVEWLAEQLKEHNIQLTETQKQQFQTYYRLLVEWNEKMNLTSITDEHDVYLKHFYDSIAPSFYFDFNQPISICDVGAGAGFPSIPLKIMFPQLKVTIVDSLNKRIQFLNHLASELQLQDVSFIHDRAETFGKGVYRESYDVVTARAVARLSVLSELCLPLVKKGGQFVALKSSKGEEELEEAKFAISVLGGNVTETHTFELPEDAGERQMFIIDKKRQTPKKYPRKPGTPNKTPLLEK | not soluble
5 | MTVFTPRTDCEVAVIGAGPFGLAAASALKGAGVDALTLGGAMSFWRDHMPRGMRLRSPWHATYIGHTKGPLSLDSYAKVLGISPREPLLLENFVDYGLWIQAQAVPDLDTRKVDRVEKANGGFRLALADGNAIKARRVVVATGLMNQQLIPAVFDGIPRELVSHASEHTGYEAFRGKRVAVIGRGQSACESAVLLKRNGAEVDLVCHGDIHWLGYRALSGKQGWSLRDFLSERLASPSRVGPFPISWLVEVPGVVHRFPEPARAGLNRRSLGAGATGWLKPDFDGIEIRAGSRIISASARDNGIELRFEKDFASFDHVVLGTGYRIDIAKLGLFAPAMLAAIARREGLPLLSAGFESSIPGLHFVGASAVGSFGPLMRFTAGTPFAARTVARFIQRAKDRRYTAALEHHHHHH | not soluble
6 | MTVLQLPNIPRITLLGTTALLFEAPGELDLAPQQRIWALADLSKNWPQVREAVPGMNNLMLTFETPPRDLSGLKTRLMEAWEHCQPLPLQGRIIELPVVYGGDGGPHMADVIAHTGLDIETIANLHCEPLYPVYALGSHPGYCYLGGMDLRLATPRRKVPVLDIGAGSVSIGGVQTGISASAGPSGWNTIGRTEMVFFDADQHPPALLQPGDQLRLRIERIIRLEHHHHHH | not soluble
7 | MTVPLYKQIASLIEDSIVDGTLSIDQRVPSTNELAAFHRINPATARNGLTLLVEAGILYKKRGIGMFVSAQAPALIRERRDAAFAATYVAPLIDESIHLGFTRARIHALLDQVAESRGLYK | not soluble
8 | MTVQEISRVIDGKRVIVKKPELLIPAGNLEKLKVAIHYGADAVYLGGQEFGLRSNAGNFTLEEMAEGVEFAKKYGAKIYVTTNIFAHNENMDGLEEYLKGIEKAGVTGIIVADPLIIETCKRVAPSVEVHLSTQQSLSNWKAAQYWKEEGLHRLVLAREASYEEMKEIKEKVDIEIEAFVHGAMCIAYSGRCTLSNHMTARDSNRGGCCQSCRWDYDLVQTVSQHKDAKELPLFQEEDAHFAMSPKDLNLILSIPKMIEIGIDSLKVEGRMKSIHYVATVATVYRKVIDAYCADPDNFEFKQEWLDELDKCANRDTAPAFFEGVPGHQEQMFGNHSKKTTYDFAGLVLDYNEETGIVTIEQRNHFKPGHEVEFFGPEIENFTQTVEKIWDEDGNELDAARHPLQIVKFKVDQPVYVNNMMRKSILQ | not soluble
9 | MTVSPSYDAIVIGSGIGGLVTATQLVSKGLKVLVLERYLIPGGSAGYFEREGYRFDVGASMIFGFGDRGTTNLLTRALAAVGQALETLPDPVQIHYHLPGGLDPKVHREYEAFLQELIAKFPQEAQGIRRFYDECWQVFNCLNTMELLSLEEPRYLMRVFFQHPGACLGLVKYLPQNVGDIARRHIQDPDLLKFIDMECYCWSVVPADLTPMINAGMVFSDRHYGGINYPKGGVGQIAESLVAGLEKFGGKIRYGARVTKIIQENNQAIGVELANGEKIYGRRIVSNATRWDTFGALTGDQPLPGKEKRWRRNYQQSPSFLSLHLGVEADLLPEGTECHHILLEDWDDLEKEQGTIFVSIPTLLDPSLAPDGYHIIHTFTPSWLESWQNLSPQEYEAKKEADSGKLIDRLEAIFPGLDRALDYMEIGTPRSHRRFLGRQNGTYGPIPRRRLPGLLPMPFNRTAIPGLYCVGDSTFPGQGLNAVAFSGFACAHRLAVDLGVRLEHHHHHH | not soluble
10 | MTVTFYSYPKCGTCQKAKKWFEANDVAYEMIHIVENPPSKEDLRNLHEKSELPLKKFFNTSGMRYRELGLKDKLKDASEDEMYELLASDGMLIKRPIVTDGTNVTLGFNEEQFESVWKKYQ | not soluble
11 | MTWLLFGAGNGVGGCLLQRAIECEQAVVLVLRNPEQAKHWREQGVTVVEGDACDPETVAEACRVAGPSAIVVSTMGGGTVNYQGHRTVIDGAEQAGIKRMLLVTSLGCGDSWPLLSPRARAAFGFAVREKSLAESWLQSSTLDHCIVRPGGLLDVVATHNAKLTQGAATLGLVSRSDVALAVDQLLQQPVFGNHIYNLIDPDLTMPAIPLEHHHHHH | not soluble
12 | MTWNESHGERIIRRFERDIFPWIGSKPISEIAAPELLATVRRIESRGAVETAHRALGNCGQVFRYAIATARATRDISADLRGALPPVKGEHLEHHHHHH | not soluble
13 | MTYDPKTAVKQDSFSGKEPFNILLLGTDTGAFGRKEVRGNSDTMILVTVNPAKKKLSLMSIPRDTMARMIGTDNFSVHKINAAYNIGGAKMAMRTTSKVLNVPIKYYISMNMGGMRKIVDGVGGVTVTPPLTFTYDGYTFTKGKTVHLNGSQALAYSRMRYDDPKGDYGRQLRQREVIMSVLEHALSFNTLKNLDSILGSVSTSLRTNLTFDSMVKISKNYRKCTNNMSSDYLHGVGAMIGDASYQVMSDRELQRTSNIVRNDLGLDSMDIDNNETYQNSMNSQFDWNSGDSNQVYYIYDPYTDELWNGDRAYLEHHHHHH | soluble
14 | MVADVKSPAGLAAFNTTLAEQAFATGFVLSGEDAQLFAALGSAPNASTYPNVARWYANVASYTDAERKTWASAGGSAPAAAAADGDDFDLFGSDDEEEDAEKAKIVEERLAAYAEKKAKKAGPIAKSSVILDVKPWDDETDLGEMEKLVRSIEMDGLVWGGAKLIPIGYGIKKLQIITVIEDLKVSVDDLIEKITGDFEDHVQSVDIVAFNKI | not soluble
15 | MVAEVSPKLAASPMKKPFGFRGKMGKWCCCCFPCCRGSGKNNMGAWRDHDDSAFTEPRYHVRREDLGKLHRAAWWGEVPRADLIVMLRGPGINKRDKKKRTALHLACANGNSEVVSLLLDRQCQLHVFDSKKRTALIKAVQCQEDECALMLLQHGTDPNLPDMYGNTALHYAVYNEDKLMAKTLLLYGADIESKNKGGLTPLLLAVHGQKQRMVKFLIKKKANLNALDRFGRICQLLSDYKENQMPNNSSGNSNPEQDLKLTSEEEPQRLKGSENSQHEKVTQEPDINKDCDREVEEEMQKHGSNNVGLSENLTDGAAAGNGDGGLVPQRKSRKHENQQFPNTEIEEYHRPEKKSNEKNKVKSQIHSVDNLDDITWPSEIASEDYDLLFSNYETFTLLIEQLKMDFNDSASLSKIQDAVISEEHLLELKNSHYEQLTVEVEQMENMVHVLQK | not soluble
16 | MVALQIPSLAATVRQDFPILNQEINGHPLVYLDNAATSQKPRAVLEKLMHYYENDNANVHRGAHQLSVRATDAYEAVRNKVAKFINARSPREIVYTRNATEAINLVAYSWGMNNLKAGDEIITTVMEHHSNLVPWQMVAAKTGAVLKFVQLDEQESFDLEHFKTLLSEKTKLVTVVHISNTLGCVNPAEEIAQLAHQAGAKVLVDACQSAPHYPLDVQLIDCDWLVASGHKMCAPTGIGFLYGKEEILEAMPPFFGGGEMIAEVFFDHFTTGELPHKFEAGTPAIAEAIALGAAVDYLTDLGMENIHNYEVELTHYLWQGLGQIPQLRLYGPNPKHGDRAALASFNVAGLHASDVATMVDQDGIAIRSGHHCTQPLHRLFDASGSARASLYFYNTKEEIDLFLQSLQATIRFFSDDDFTV | soluble
17 | MVAPGKKFTLRHIFKNVTKWKTGEIFYSPDEEHFNVPWQMCIHRENGNMCVILCCLKVEEDRVPWKINFEYQLKIVNISGMSIVKAGNKICTEKRRFVRRQFISRNTLKSGYLVDDIITVEATVKITKVSKKQLRSFDKSNKKFSDVILAIEDEKFYVLKKFLASHSTYFKTLLLGKFEEAERQEVKLQDIDSTDFQNLMEVLYGESAIDDGTIKGILELADMYDMPFPIRKCEEFLIDSSEKSIKEKLKIAKQYKMENLKNSCLSKVNTVRDIKAAMTGDPTEMDLSVLAALLGKSLALH | not soluble
18 | MVARRKGERVVRKNEVENVQQRACANRRERQRTKELNDAFTLLRKLIPSMPSDKMSKIHTLRIATDYISFLDEMQKNGCKLYGHSIFDEKRGYNLQSAFNMWRGNNGYTPIAGPSQLPPLQSAHIPPPAPSSIPPHCLMPQPWYQTCPPPKQEFHELCPISTPNPNSNPNQLTPIHWQ | not soluble
19 | MVDEVAKKKSKKEKDKDSKLEKALKAQNDLIWNIKDELKKVCSTNDLKELLIFNKQQVPSGESAILDRVADGMVFGALLPCEECSGQLVFKSDAYYCTGDVTAWTKCMVKTQTPNRKEWVTPKEFREISYLKKLKVKKQDRIFPPETSASVALEHHHHHH | soluble
20 | MVDPQLDGPQLAALAAVVELGSFDAAAERLHVTPSAVSQRIKSLEQQVGQVLVVREKPCRATTAGIPLLRLAAQTALLESEALAEMGGNASLKRTRITIAVNADSMATWFSAVFDGLGDVLLDVRIEDQDHSARLLREGVAMGAVTTERNPVPGCRVHPLGEMRYLPVASRPFVQRHLSDGFTAAAAAKAPSLAWNRDDGLQDMLVRKAFRRAITRPTHFVPTTEGFTAAARAGLGWGMFPEKLAASPLADGSFVRVCDIHLDVPLYWQCWKLDSPIIARITDTVRAAASGLYRGQQRRRRPG | soluble
